The nature of this data set: soluble on expression in E. coli; label from the status in PepcDB or PDB records.
Take “MSKPKYPFEKRLEVVNHYFTTDDGYRIISARFGVPRTQVRTWVALYEKHGEKGLIPKPKGVSADPELRIKVVKAVIEQHMSLNQAAAHFMLAGSGSVARWLKVYEERGEAGLRALKIGTKRNIAISVDPEKAASALELSKDRRIEDLERQVRFLETRLMYLKKLKALAHPTKK”: the “soluble on expression in E. coli” value is reported as “not soluble”.

Consider “LPKPGVYYFPWEVSDGHVPEGSTLRTFGRLYLYDMARSLMTLAAPQKPDQCQLLVCTNLVEPFEAHVNFLYMVLGDLERMEGGAFVVRARLLTCVEGMDLSLLEKAILEQRRHLQKRQQPIGDASTLQTPTPAPQSIPSD”, for which the “soluble on expression in E. coli” value was “not soluble”. Regarding “MGSDKIHHHHHHMNILEYENYHEDKTHVELTFPYNTYLCSIPLDFSGVPLHWHDDMELIYIKKGCGHISVDFKEYHVTAPSLVLILPGQLHSIDQYMDESMEYENIIFSLSMLLPGKYDYTKEDFLTPLLAGRFTVPTVFTPVYPYYEDVVAPIDACDEICKTMPQGYQLYIKSKLYEFFFVLDNRCRNLTKPLKSKKTLDKMKVVLKYVENNYADKISIADIADVAGFSESHFMRYFKETMGTSFVDYLKDYRLTMAARLLQSSDSSVLSISGEVGFESLSYFNRAFKKHYGMTPLQYRKGS”, the “soluble on expression in E. coli” value is given as “not soluble”. The entry for “MAHHHHHHMPLPPVEDAPNSMARRHYLVERNRLRVKKYEPTRQAFEEETVKLSKQRVEQRVAMLNSWKSSVPLHTDTTRPLPGAARRQKEKDEPAAKHINLQILDEDAALKRERRALLRADILQQKKDREEYLAKWRANEKAYDSALLATNAEFARQMQEQERQAAVATKQYMDMMRASNLKELEAKRAKQREKEEADVAALRTMQENLRLKMEADERRAKDMKRLMQIENEENHSLFKKKQAEDKAREDAWIRTMMEHNAALAERERREAEQKRQQFKADFEDTIAKQKEFRRTHDYDEPQELIRKRNEEAAASAVLIRQEERLRNNEQRKQYREELMKQMREKYEWQLSHLDGV” is “not soluble”; for “MSVRIEDHAMLGNCHSAALVDHRGTIGWLCLPRFDSDAVFAALLGDQQHGQWALSPAADFRTERAYQDDSLVLCTRMITDSGTVELIDFMVASENGEVHQHLVRIVRCVQGSVPMHMRLTFRFNYGRTLEHHHHHH” it is “soluble”; for “MGSDKIHHHHHHVPPLRLAIVGDIHDQWTLADQQLLLQLQPDLTLFVGDFGNESLALVQAIAAIPLRKAVILGNHDAWYTATRWRRSQCPYDWMRENRFEQQLEALGGLHIGYGRLDFPEWNLSVVGGRPCSAGGSQWQHRRFYRHYYQVGSFPESAQRIADCAIASPCDRVLFLAHCGPSGLGDQPEDPCGKDWSRPGGDFGDPDLAMAIAQVQAQKVVPLVCFGHMHHRLRHRRDRPRRSWHRDTAGTVYLNAAASPRILKAQQTTLHHLLWVELSDSLVTAQQTWWTPAGVLVQSEELPLVPQPA” it is “not soluble”.

In the case of “AMDSIAKRPRTRLSPLKRKQQLMEIALEVFARRGIGRGGHADIAEIAQVSVATVFNYFPTREDLVDEVLNHVVRQFSNFLSDNIDLDLHAKENIANITNAMIELVVQDNHWLKVWFEWSASTRDEVWPLFVTTNRTNQLLVQNMFIKAIERGEVCDQHNPEDLANLFHGICYSLFVQANRTNNTAELSKLVSSYLDMLCIYKREHE”, the “soluble on expression in E. coli” value is on record as “soluble”.

Turning to “MDNEEYYKILGVAKSASQDEIKHAYRKMSKKYHPDLNHQPGAEDKYKQVQEAYETLGDPQKRAAYDQYGKAGANANNGQGGFGGFQQSGFNFNGQDFGDFSDIFSQMFGGSFNPNAPRKGRDLQYRINLTFEEAVFGKETEIKYVRQESGGNSKEHTVKVTIPAGVETGQQMRLAGQGEAGTHGGPYGDLYVEFIVGKSKDGFERQGANIYLEEPINFVQAALGDKIKVKTVHGDVELTIPAGTQTDTEFRLRGKGAPYVNSSRIGDEYVKVIVQVPKRLNEKEKKALKTYADLRGENVNPQKRRGLFG”, the “soluble on expression in E. coli” value is recorded as “not soluble”. Next, “MRPYYIAIVGSGPSAFFAAASLLKAADTTEDLDMAVDMLEMLPTPWGLVRSGVAPDHPKIKSISKQFEKTAEDPRFRFFGNVVVGEHVQPGELSERYDAVIYAVGAQSDRMLNIPGEDLPGSIAAVDFVGWYNAHPHFEQVSPDLSGARAVVIGNGNVALDVARILLTDPDVLARTDIADHALESLRPRGIQEVVIVGRRGPLQAAFTTLELRELADLDGVDVVIDPAELDGITDEDAAAVGKVCKQNIKVLRGYADREPRPGHRRMVFRFLTSPIEIKGKRKVERIVLGRNELVSDGSGRVAAKDTGEREELPAQLVVRSVGYRGVPTPGLPFDDQSGTIPNVGGRINGSPNEYVVGWIKRGPTGVIGTNKKDAQDTVDTLIKNLGNAKEGAECKSFPEDHADQVADWLAARQPKLVTSAHWQVIDAFERAAGEPHGRPRVKLASLAELLRIGLG”: “soluble”; “MAHHHHHHMEEESHALKDPWFVSYIPQLTTEIVKNNYEGDWNLAKEALQQPLDYVRTVEEFWSTLNSLPKLHQLESSSTFVFARNNVDASYEAFPNGTRIIVDIRKAAMAEKATAVILSSVIGESVSQEVCGGKPICDVLRLSSRPNKESPELVRLEVWLSDQTYGKAVLAYVRKALNDVGMSQPHVIFGESLFEKEKKKKGK”: “soluble”. On to “MRYIAGIDIGNSSTEVALATLDEAGALTITHSALAETTGIKGTLRNVFGIQEALALVARGAGIAVSDISLIRINEATPVIGDVAMETITETIITESTMIGHNPKTPGGAGLGTGITITPQELLTRPADAPYILVVSSAFDFADIASVINASLRAGYQITGVILQRDDGVLVSNRLEKPLPIVDEVLYIDRIPLGMLAAIEVAVPGKVIETLSNPYGIATVFNLSPEETKNIVPMARALIGNRSAVVVKTPSGDVKARAIPAGNLELLAQGRSVRVDVAAGAEAIMKAVDGCGRLDNVTGESGTNIGGMLEHVRQTMAELTNKPSSEIFIQDLLAVDTSVPVSVTGGLAGEFSLEQAVGIASMVKSDRLQMAMIAREIEQKLNIDVQIGGAEAEAAILGALTTPGTTRPLAILDLGAGSTDASIINPKGDIIATHLAGAGDMVTMIIARELGLEDRYLAEEIKKYPLAKVESLFHLRHEDGSVQFFSTPLPPAVFARVCVVKADELVPLPGDLALEKVRAIRRSAKERVFVTNALRALRQVSPTGNIRDIPFVVLVGGSSLDFEVPQLVTDALAHYRLVAGRGNIRGSEGPRNAVATGLILSWHKEFAHER”, for which the “soluble on expression in E. coli” value was “soluble”.

Consider “METLTVHAPSPSTNLPSYGNGAFSLSAPHVPGAGPLLVQVVYSFFQSPNMCLQALTQLEDYIKKHGASNPLTLQIISTNIGYFCNADRNLVLHPGISVYDAYHFAKPAPSQYDYRSMNMKQMSGNVTTPIVALAHYLWGNGAERSVNIANIGLKISPMKINQIKDIIKSGVVGTFPVSTKFTHATGDYNVITGAYLGNITLKTEGTLTISANGSWTYNGVVRSYDDKYDFNASTHRGIIGESLTRLGAMFSGKEYQILLPGEIHIKESGKRAAHHHHHH”, for which the “soluble on expression in E. coli” value is recorded as “soluble”.

As to “MDLADLMEVENGDHSINQKHVQITFFSKDEEIPQIPDAVFDVPTGAECDDMNLLLNKTIEANDGAWKERRFEFLVGETFLRTSLAEFIEEYEVETETILKVECVIGIEAPKPLHDIQAPDWVSSVQIANGHIFSTTYGGDIVIVDRKGKETKLAVNSANRLLKCISIVKAPSKKNQLDGTEFVVGGENQLLTLYAIEKGALVEKLILRGHERAVECVSVNSDSTRAISGSVDTNLKIWNLDASDEATTYEKEEEEESAKKRRKKETKTKVPMVTIGGHRDKVSAVEWCPWNSGHAFSCSWDHTIVEWDLELAGEISRIKGPKSFTSIDLHPKSDLLISSCTDAIPRLYDPKNRDGSMVKQSFIGHQNGWVEAVKWNPLDTNQFVSVSTDKTAKMWDVRSSKSSLFDIHGHDDRILCATWNEGLIATGSADCTIKIFETA”, the “soluble on expression in E. coli” value is given as “not soluble”.

“MPLKAYRPPEDPGLWDTYLEWLERALKVAEAHPTTLEYLAHPKRLVTLSLPVVMDDGKVRIFQGYRVVHDIARGPAKGGVRLDPGVTLGQTAGLAAWMTLKAAVYDLPFGGAAGGIAVDPKGLSPQELERLVRRYTAELVGLIGPDSDILGPDLGADQQVMAWIMDTYSMTVGSTVPGVVTGKPHALGGSEGRDDAAGLGALLVLEALAKRRGLDLRGARVVVQGLGQVGAAVALHAERLGMRVVAVATSMGGMYAPEGLDVAEVLSTYEATGFLPRLDLAPEEVFGLEAEVLVLAAREGALDGDRARQVQAQAVVKVANFGLTPEAEAYLLGKGALVVPDLLSGGGGLLASYLEWVQDLNMFFWSPEEVRERFETRVARVVDAVCRRAERGGLDLRMGALALALERLDEATRLRGVYP”: the “soluble on expression in E. coli” value is “soluble”. The entry for “MGSRENLYFQGLEHHHHHHHMKNVKTLIAAAILSSMSFASFAAVEVQSTPEGQQKVGTISANAGTNLGSLEEQLAQKADEMGAKSFRITSVTGPNTLHGTAVIYK” is “soluble”; for “MEGVKKIKNPSTVKDELLELMFRIYRSTNGKYPALEWVKRKPNPNDFDGFREVYEPFLKFRLSQEFDELYTYQKDNRIIGTIALVYKRIKEKGIWWVPEELMNEKVGLIEFFVVDPEFQGKGIGSTLLEFAVKRLRSLGKDPYVVTFPNLEAYSYYYMKKGFREIMRYKEFVILKFNHKKFQLEHHHHHH” it is “not soluble”; for “MEQFLDNIKDLEVTTVVRAQEALDKKETATFFIGRKTCPYCRKFAGTLSGVVAETKAHIYFINSEEPSQLNDLQAFRSRYGIPTVPGFVHITDGQINVRCDSSMSAQEIKDFAGL” it is “soluble”. Next, “MAHHHHHHMDTTTLKEADMNQMIIQLMEREKKKKKKKNIYEQKKMEPQNYSHMKKFKISPKEEKSLNKEEIKSHLINFFQEQEKIYKDEELNTKNYIIDETKKKEKEVYLNGYYIYCQDFKNEYNNYFNSFIKESEDIKKDLKDLQIQYMDDKILLGNKRKMELDNMLHFYKEKLLDIKNHWDTKNFCDDNLKNIVYDILNVIN”: “not soluble”. Next, “MEKKTNCIQNEEQKKEKELIAEKAAKAGFVNRLYVNIGQKVGVVELTKLEPRFERNIDKLTSYHNLIYKIVNVIELQVQFMPKAMAKKAVLCAPGENPWEVLGGWLNYLGKNQFDGQHSKMLEKYSSACGRIAQKEIQVQKRTRSHLIKKMRLYTGEESEILNSNVENLNNLLHAIDDSRHHVKSSKTTKEVKAKGETYRKAINAFNETANEVQALIDEVAMVVPLHENEFLKFSREASVYHDTVHNSLSEVIFRLGYHVKKH”: “not soluble”. Take “MKVFIIGAAGGIGNRLSSLLHARGDAVSGMHRNLEQASKITDTGATAVLGDLIHNSTEELAELFRGHDAIVFSAGAHGTGQENTTLIDGAGLRKAADAASAANVSRFILVSAFPESSRGENTTENFEHYMKVKKSADVYLSHTDLDWVIVRPGVLQDEAGDGLVTAGLAINYGNVARDNVAAFIDEALHQPQLSKIIVELTDGSTPVAEAVERLIKLEHHHHHH”: the “soluble on expression in E. coli” value is “soluble”. Next, “MGSDKIHHHHHHMKRAVVVFSGGQDSTTCLIQALQDYDDVHCITFDYGQRHRAEIEVAQELSQKLGAAAHKVLDVGLLNELATSSLTRDSIPVPDYDANAQGIPNTFVPGRNILFLTLASIYAYQVGAEAVITGVCETDFSGYPDCRDEFVKALNQAIVLGIARDIRFETPLMWLNKAETWALADYYQQLDTVRYHTLTCYNGIKGDGCGQCAACHLRANGLAQYQKDAATVMASLKQKVGLR”: “not soluble”; “MGHHHHHHSHMSPVLTQHVSQPITLDEQTQKMKRHLLQDIRRSAYVYRVDCGGCNACEIEIFAAITPVFDAERFGIKVVSSPRHADILLFTGAVTRAMRMPALRAYESAPDHKICVSYGACGVGGGIFHDLYSVWGGSDTIVPIDVWIPGCPPTPAATIHGFAVALGLLQQKIHAVDYRDPTGVTMQPLWPQIPPSQRIAIEREARRLAGYRQGREICDRLLRHLSDDPTGNRVNTWLRDADDPRLNSIVQQLFRVLRGLHD”: “not soluble”.

The values above are taken from the DeepSol protein solubility set.
